Measured values taken from the supplement of paper PMC9732359.
± gives the uncertainty stated by the source.

Experiment: protein stability index of a GFP-peptide fusion (yeast GPS) (PSI 1-4); higher = more stable; sorted into four equal gates, so the index is relative within each strain
In short: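 Plasmids isolated from each sorting gate were PCR-amplified and Illumina-sequenced, and barcodes assigned the reads to strains. The gates, four of equal size, were set by GFP/Cherry fluorescence ratio on mid-log cultures in leucine-free medium. These cultures were yeast carrying a pooled library of tiled 17-residue yeast protein peptides fused downstream of GFP on a plasmid that also expresses Cherry. The protein stability index is the sum of every gate's read frequency times its gate number.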

Sequence	protein stability index (doa10∆)	protein stability index (pdr5∆)	protein stability index (san1∆)	protein stability index (ubr1∆)
GESIMSEEPTDFGFDLD [MCD1]	3.1 ± 0.13	3.25 ± 0.17	3.34 ± 0.072	3.24 ± 0.095
REDMPFTAEGIVPDLII [RPB2]	2.49 ± 0.092	3.42 ± 0.15	3.1 ± 0.093	2.79 ± 0.11
PDSNHLSSETGIKLALD [SRB4]	3.3 ± 0.087	3.35 ± 0.073	3.33 ± 0.058	3.37 ± 0.066
STCIVSLIRNNLHAEGW [ECM29]	1.21 ± 0.052	1.47 ± 0.068	2 ± 0.077	1.64 ± 0.067
LLRALKTNEESAKMILL [PRP8]	3.05 ± 0.099	2.98 ± 0.1	2.86 ± 0.071	2.92 ± 0.037
AKTLIPSLNNKISDDEL [RPB4]	2.98 ± 0.069	3.1 ± 0.069	3.06 ± 0.06	3.19 ± 0.061
SRGFEVMYNGHTGKKLM [RPB2]	1.97 ± 0.12	3.33 ± 0.25	2.71 ± 0.13	–
LKSSLADVLSILAMTYS [RPN1]	1.7 ± 0.062	2.02 ± 0.12	1.89 ± 0.19	1.96 ± 0.059
RKRAHSLVSTQSSSSTR [REC8]	2.86 ± 0.069	2.94 ± 0.068	2.77 ± 0.051	2.92 ± 0.068
SSDAFEVDVCDKCGLMG [RET1]	2.38 ± 0.18	2.59 ± 0.11	2.33 ± 0.19	2.12 ± 0.11
NITDYETHPDNSNKQAV [BRR2]	2.81 ± 0.047	3 ± 0.045	2.73 ± 0.037	2.9 ± 0.034
GGRYVYPVHEAHKGQIV [SNU114]	1.58 ± 0.12	2.97 ± 0.11	3.01 ± 0.054	2.89 ± 0.063
RKFHELNDHIDDFEVNV [GRR1]	3.07 ± 0.097	3.18 ± 0.1	2.42 ± 0.16	3.08 ± 0.073
DRVAKVLTYPEKVTRYN [RPO31]	2.87 ± 0.12	2.92 ± 0.14	2.94 ± 0.29	2.98 ± 0.17
INDPTNKEYTLVHGIFG [SIN4]	2.1 ± 0.09	2.21 ± 0.091	2.25 ± 0.13	1.94 ± 0.19
PVIDTQIANEFNTQQGI [YDL116W/NUP84]	2.77 ± 0.051	2.99 ± 0.057	2.79 ± 0.042	2.95 ± 0.047
TEKEPVPAVVDDPLENM [SNF6]	2.85 ± 0.073	3.12 ± 0.08	2.69 ± 0.082	2.88 ± 0.068
SFVKETKLHSGDYGEEE [SRB8]	3.61 ± 0.23	3.22 ± 0.13	–	3.44 ± 0.1
WIVVLPWFWLLPLWHLL [POP1]	2.4 ± 0.092	1.21 ± 0.057	1.14 ± 0.13	1.07 ± 0.046
YPFVTNDDIEWMLSICV [YJR042W/NUP85]	2.29 ± 0.083	2.56 ± 0.061	2.67 ± 0.059	2.68 ± 0.058
TVSILQESSSLRLLEVT [POP8]	2.2 ± 0.055	2.38 ± 0.048	2.4 ± 0.083	2.33 ± 0.033
LLATKQHDSSANEDEEE [CSN12]	2.85 ± 0.12	3.05 ± 0.089	2.72 ± 0.086	2.87 ± 0.1
FTCSCNSLTVDGNNANY [RPN14]	2.8 ± 0.074	2.81 ± 0.076	2.69 ± 0.058	2.75 ± 0.044
LDKLNCAINSKSRGSDL [RRP6]	2.81 ± 0.049	2.93 ± 0.042	2.79 ± 0.042	2.94 ± 0.032
HESYCLPMDTNLFKINS [YMR129W/POM152]	1.54 ± 0.055	1.72 ± 0.039	1.74 ± 0.13	1.37 ± 0.067
KNGALVSNILSAFKFIH [YJL039C/NUP192]	1.71 ± 0.055	1.65 ± 0.046	1.51 ± 0.065	1.3 ± 0.036
QKEEGRSFTKAIEDAKK [YLR335W/NUP2]	3.1 ± 0.11	3.06 ± 0.085	3.05 ± 0.086	2.8 ± 0.069

Sequence	protein stability index (doa10∆)	protein stability index (pdr5∆)	protein stability index (san1∆)	protein stability index (ubr1∆)
MFNNHEIDTILSTLRME [RPN9]	–	3.51 ± 0.2	2.84 ± 0.13	3.03 ± 0.071
VGPHFKQANNFLWPFKL [RPL7A]	2.71 ± 0.069	3.05 ± 0.098	2.97 ± 0.065	2.93 ± 0.064
EEEKELTEEELKTRYVG [RPN11]	3.68 ± 0.2	3.44 ± 0.12	3.4 ± 0.067	3.5 ± 0.14
SPMGAQPSYNSAIIENA [GAL11]	2.88 ± 0.074	2.96 ± 0.071	2.5 ± 0.1	2.73 ± 0.045
GPVGKECADLWPRVASN [RPL23A]	3.2 ± 0.13	3.3 ± 0.11	3.17 ± 0.1	3.23 ± 0.057
KSGTSHDAIFSIYKYIH [SNF12]	2.51 ± 0.059	2.66 ± 0.054	2.34 ± 0.068	2.2 ± 0.046
QQVEGKLSQMILDKIFY [RPN6]	2.81 ± 0.074	2.84 ± 0.081	3.01 ± 0.096	2.94 ± 0.062
PLVLLQQIPLLCYMAPM [POP3]	1.72 ± 0.053	1.59 ± 0.061	1.85 ± 0.074	1.92 ± 0.054
ADNTKDKEKEENNDDAL [MED4]	2.86 ± 0.14	3.04 ± 0.11	2.98 ± 0.078	3.16 ± 0.082
SSKLVDVYTLPSYVHFK [YML103C/NUP188]	1.82 ± 0.047	1.61 ± 0.046	1.69 ± 0.061	1.46 ± 0.036
ITIDSVVDANGCVNSLI [YMR129W/POM152]	3.01 ± 0.11	2.91 ± 0.09	3.05 ± 0.055	2.8 ± 0.06
TMEVKSFPILDQCVGQV [YMR129W/POM152]	2.19 ± 0.09	3.08 ± 0.11	2.34 ± 0.13	2.69 ± 0.06
STAFVPTIEYVQCPTVI [ARP9]	1.68 ± 0.065	1.97 ± 0.048	1.71 ± 0.08	1.88 ± 0.052
QLESYEYMVQYIDEMYN [RRI1]	2.74 ± 0.052	2.89 ± 0.075	3.27 ± 0.14	2.42 ± 0.071
HLGKGTMTMDVFNDAHV [RPN1]	2.96 ± 0.073	2.98 ± 0.084	2.06 ± 0.12	2.87 ± 0.081
GTNNISQHGQGNNPSWV [YDL088C/ASM4]	3.01 ± 0.078	3.39 ± 0.059	3.3 ± 0.058	3.12 ± 0.054
RSPPRPPSLKIIDGPKA [PRP28]	2.23 ± 0.07	2.27 ± 0.079	1.98 ± 0.094	1.74 ± 0.041
SGKETASAPLCSPKLPV [DLS1]	2.89 ± 0.049	3.13 ± 0.05	3.15 ± 0.039	3.14 ± 0.034
IEPQVINYLALNAANYN [ECM29]	3.37 ± 0.13	2.63 ± 0.12	2.15 ± 0.24	2.33 ± 0.078
AAAYSHELPRYGITHGL [RPL5]	2.64 ± 0.081	2.93 ± 0.064	2.98 ± 0.052	2.96 ± 0.074
SLTPTQSDSAKVEIKKV [PRP28]	3.01 ± 0.12	3.39 ± 0.069	2.92 ± 0.093	3.1 ± 0.06
RNSKTVREFLEKNYDRK [PRE6]	3.08 ± 0.27	–	–	–
NLGSRTKNNTQASGITA [SSN3]	2.44 ± 0.065	2.38 ± 0.045	2.18 ± 0.054	2.65 ± 0.043
ISLHENKLSGILADEMG [ISW2]	2.81 ± 0.085	2.16 ± 0.069	2.71 ± 0.084	2.44 ± 0.1
GFNMKKITTSTEDQKVT [SRP68]	2.84 ± 0.065	2.67 ± 0.051	2.83 ± 0.074	2.42 ± 0.04
PANVLLVQSLNDMVLEL [NNF1]	2.67 ± 0.18	2.68 ± 0.17	2.83 ± 0.13	2.94 ± 0.057
